Experimental data as given in patent US20220127365A1 (DREN BIO, published 2022).
Residue numbers refer to the chain shown, from its start.

T1: human CD94 (human, UniProt Q13241 1-179)
T1 sequence (looked up): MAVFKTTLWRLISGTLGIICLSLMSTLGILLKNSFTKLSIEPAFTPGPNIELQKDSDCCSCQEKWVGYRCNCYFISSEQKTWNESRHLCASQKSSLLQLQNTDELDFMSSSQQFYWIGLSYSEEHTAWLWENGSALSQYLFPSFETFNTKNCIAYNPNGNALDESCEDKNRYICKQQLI

B1: anti-CD94 antibody ATX-125 (antibody, human IgG1, V domains shown)
VH: QVQLQQSGPGLVKPSETLSLTCTVSGGSISSIIYYWGWIRQPPGKGLEWIGSIYYSGSTYYNPSLKSRVTISVDTSKNQFSLNLSSVTAADTAVYYCARLPLTGEFAFDIWGQGTMVTVSS
VL: EIVLTQSPATLSLSPGERATLSCRASQSVSTYLAWFQQKPGQAPRLLIYGASSRATGIPDRFSGSGSGTDFTLTISRLEPEDFAVYYCQQYGSSPITFGQGTRLEIK
B2: anti-CD94 antibody ATX-126 (antibody, human IgG1, V domains shown)
VH: QVQLQESGGGLVQPGGSLKLSCAASGFTFSSYSMNWVRQAPGKGLEWVSSISTSSNFIYYADSVKGRFTISRDNSKNTLYLQMNSLRAEDTAVYYCVRDMGPFYSFYYMDVWGNGTTVTVSS
VL: DIQVTQSPATLSLSPGERATLSCRASQSVSSSYLAWYQQKPGQAPRLLIYGASNRATGIPARFSGSGSGTDFTLTISSLQPEDFATYYCLQHNSYPPTFGGGTKVDIK
B3: 18H3-KIF (antibody, V domains shown)
VH: EVQLVQSGAEVKKPGESLKISCKGSGYRFTSYWIGWVRQMPGKGLEWMGIIYPGDSDTRYSPSFQGQVIISADKSITTAFLQWSSLKASDTAMYYCARPFDYGGSPGYFDYWGQGTLVTVSS
VL: DIQMTQSPSTLSASVGDRVTITCRASQSIRSWLAWYQQKPGKAPKLLIYKASSLESGVPSRFSGSGSGTEFTLTISSLQPDDFATYYCQQYNTFWTFGQGTKVEIK
B4: anti-CD94 antibody 1E4 (antibody, V domains shown)
VH: QVTLRESGPALVKPTQTLTLTCTFSGFSLSTSDLCVSWIRQPPGKALEWLALIDWNDDKYYSTSLQTRLTISKDTSKNQVVLTMTNMDPVDTATYYCARTIAAAGPYDAFDIWGQGTMVTVSS
VL: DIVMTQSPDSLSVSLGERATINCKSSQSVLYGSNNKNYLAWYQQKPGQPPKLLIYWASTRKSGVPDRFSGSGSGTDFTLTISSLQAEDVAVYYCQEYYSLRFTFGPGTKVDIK
notes: Hybridoma antibody from ATX-Gx Alloy transgenic mice; also called fucosylated 1E4
B5: anti-CD94 antibody 1M4 (antibody, V domains shown)
VH: QLVESGGGLVQPGGSLRLACAASGFTFSNYAMNWVRQAPGKGLEWVSVISGSGDTTYCADSVKGRFTISRDNSKNTLHLQLNSLRAEDTAVYYCAKNCYGSGSYYNHFDYWGQGTLVTVSS
VL: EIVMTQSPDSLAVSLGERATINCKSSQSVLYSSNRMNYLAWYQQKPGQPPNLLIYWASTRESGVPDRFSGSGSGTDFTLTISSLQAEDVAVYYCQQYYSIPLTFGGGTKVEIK
B6: anti-CD94 antibody ATX-128 (antibody, V domains shown)
VH: QVQLQESGGGLVQPGGSLKLSCAASGFTFSGSTIQWVRQASGKGLEWVGRIRSKANSYATASAASVKGRFTISRDDSKNMAYLQMNSLKTEDTAVYYCTREGLGYYNVGYYYFYMDVWGKGTTVTVSS
VL: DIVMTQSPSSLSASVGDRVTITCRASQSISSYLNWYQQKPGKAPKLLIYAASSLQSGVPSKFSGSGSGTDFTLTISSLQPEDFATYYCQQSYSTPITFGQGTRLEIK
B7: anti-CD94 antibody ATX-124 (antibody, human IgG1, V domains shown)
VH: QVQLVQSGAEVKKPGASVKVSCKASGYTFTSYGISWVRQAPGQGLEWMGWISAYNGNTNYAQKLQGRVTMTTDTSTSTAYMEVRSLRSDDTAVYYCARDRGRFGELFFDHWGQGTLVTVSS
VL: DIVMTQSPSSVSASVGDRVTITCRASQGISNYLAWYQQKPGKAPKLLIYAASSLQSGVPSRFSGSGSGTDFTLTISSLQPEDFATYYCLQHNSYPFTFGPGTKVDIK
B8: anti-CD94 antibody ATX-123 (antibody, human IgG1, V domains shown)
VH: B7 VH with L64F, S77N, V83L, F107L, F108S, H110Y
VL: B7 VL
B9: anti-CD94 antibody ATX-122 (antibody, V domains shown)
VH: B7 VH with V18L, I34V, M48V, A53P, Q62H, K63N, T69A, V83L, T91M, H110Y
VL: B7 VL
notes: Detected with an anti-human secondary antibody
B10: anti-CD94 antibody ATX-129 (antibody, human IgG1, V domains shown)
VH: EVQLVQSGGGLVQPGGSLRLSCAASGFTFSSYWMSWVRQAPGKGLEWVANIKQDGSAKYYVDSVKGRFTISRDNAKNSLYLQMNSLRAEDTAVYYCARGYYFDYWGQGTLVTVSS
VL: EIVLTQSPSTLSASVGDRVTITCRVSQGISSYLNWYRQKPGKVPKLLIYAASSLQSGVPSRFSGSGSGTDFTLTISSLQPEDFATYYCQQSYSTPITFGQGTRLEIK
B11: anti-CD94 antibody ATX-127 (antibody, human IgG1, V domains shown)
VH: QVQLQQSGPGLVKPSGTLSLTCAVSGGSISSRYWWTWVRQPPGKGLEWIGEIYHSGTTNYNPSLESRVTISVDKSKNQFSLKVSSVTAADTAVYYCARSPNWGYYYYYMDVWGKGTTVTVSS
VL: EIVMTQSPATLSVSPGERATLSCRASQSVSSSYLAWYQQKPGQAPRLLIYGASSRATGIPDRFSGSGSGTDFTLTISRLESEDFAVYYCQQYGRSLTFGGGTKVEIK

What follows are binders tested against T2, cynomolgus CD94 (cynomolgus monkey) (assay: flow cytometry on HEK293 cells overexpressing cynomolgus CD94; unconjugated antibody in a dilution series, Alexa Fluor 647 anti-human secondary antibody).
T2 construct: whole, on cells; The construct expressed in HEK293 cells is not described further; also called cyno CD94; cynomolgus monkey CD94
Method: For human NK cell binding, PBMCs were freshly isolated from healthy donors and incubated with unconjugated antibodies in a dilution series from 100 nM to 0.046 nM. Secondary anti-human antibody labeled with Alexa Fluor 647 was used to detect binding on CD3−CD56bright NK cells. For cynomolgus CD94 binding, HEK293 cells overexpressing cynomolgus CD94 were incubated with unconjugated antibodies in a dilution series from 100 nM to 0.046 nM. Secondary anti-human antibody labeled with Alexa Fluor 647 was used to detect binding on the cells.
In the case of B1, the “EC50 (read off the curve)” value is reported as about 2 nM. In the case of B2, the “EC50 (read off the curve)” value is reported as about 2 nM.

These binders were tested against T1, human CD94 (assay: cell-based or functional assay).
In the case of B3, the “IC50 of CLPD-NK leukemic cell depletion, ADCC assay with CLPD-NK patient PBMCs” value is reported as 0.059 µg/mL and the “IC50 of NK cell depletion, ADCC assay with healthy donor PBMCs” value is reported as 0.02 µg/mL.

Each binder was assayed against T1, human CD94 (assay: table column 'HLA-E blocking'; flow cytometry on NK cells of healthy donor PBMCs, antibody at saturating concentration, blocked ligand PE labeled HLA-E tetramer; percent blocking = 100-((percent HLA-E positive with antibody)/(percent HLA-E positive with isotype)*100)).
Method: FIGS. 4A & 4B show the results of HLA-E tetramer blocking assays performed with anti-CD94 and commercially available anti-CD94 antibodies using flow cytometry. Healthy donor PBMCs were incubated with anti-CD94 antibodies. PE labeled HLA-E tetramer was then incubated with the cell and antibody mixture, and detected using flow cytometry. For HP-3B1, 131412, 12K45, DX22, 1M4 and 1E4, 2.5 μl of HLA-E tetramer reagent was used, while 5 μl was used for 18H3 and HP-3D9. Saturating concentrations of each antibody was used in this assay. The percent blocking was calculated as 100−((percent HLA-E positive for anti-CD94 antibody)/(percent HLA-E positive for isotype)*100).
(§1) Healthy donor PBMCs were seeded in 96-well plates at a density of 100,000 cells per well, incubated with human Fc block (Biolegend) and cell viability dye (Thermo Fisher) for 30 minutes on ice and protected from light. The cells were washed once with FACS buffer (PBS with 2% IgG low FBS). anti-CD94 antibodies at EC80 concentrations were incubated with cells for 30 minutes on ice and protected from light. After incubation with the anti-CD94 antibodies, the cells were washed and incubated with HLA-E tetramer PE (Creative Biolabs), anti-CD3 pacific blue-labelled, and anti-CD56 FITC-labelled antibodies (Biolegend) for 30 minutes on ice and protected from light. The cells then received a final wash in FACS buffer before quantification on the Cytoflex (Beckman Coulter). All data acquisition and fluorescence compensation were performed using CytoFlex (Beckman Coulter, Atlanta, Ga.). Data analysis was performed using FlowJo software. NK cells were identified through gating on lymphocytes on the forward and side scatter, followed by doublet and dead cell exclusion, and gated on the CD3−CD56+ population. HLA-E expression was then quantified on the CD3−CD56+NK cell population. Percent blocking was calculated as 100−((percent HLA-E positive for anti-CD94 antibody)/(percent HLA-E positive for isotype)*100).
With B4 the HLA-E blocking was 0%. B5 showed an HLA-E blocking of 0%.

These binders were tested against T1, human CD94 (assay: HLA-E tetramer blocking on healthy-donor PBMCs, flow cytometry; competitor HLA-E tetramer).
Method: as §1
Healthy donor PBMCs were incubated with anti-CD94 antibodies. PE labeled HLA-E tetramer was then incubated with cells and antibody mixture and detected by flow cytometry.
Percent blocking was calculated as 100−((percent HLA-E positive for anti-CD94 antibody)/(percent HLA-E positive for isotype)*100). If an antibody blocked more than 20% of HLA-E binding, it was considered a ligand-blocking antibody.
B1 was tested, and the “percent HLA-E blocking” value was 11%. B6 was tested, and the “percent HLA-E blocking” value was 10%. In the case of B7, the “percent HLA-E blocking” value is reported as 18%. For B8, the “percent HLA-E blocking” value was 39%. For B9, the “percent HLA-E blocking” value was 0%. For B2, the “percent HLA-E blocking” value was 0%. B10 was tested, and the “percent HLA-E blocking” value was 96%. B11 was tested, and the “percent HLA-E blocking” value was 77%.

Each binder was assayed against T1, human CD94 (assay: flow cytometry titration (100 nM to 0.046 nM) on healthy-donor PBMCs, CD3-CD56bright NK cells; column 'Affinity on human NK cells (nM)').
B1 was tested, and the EC50 was 4.63 nM. B6 showed an EC50 of 0.32 nM. B7 showed an EC50 of 10 nM. Work on B8 yielded an EC50 of 1.12 nM. B9 was tested, and the EC50 was 27 nM. B2 showed an EC50 of 2.52 nM. With B10 the EC50 was 2.8 nM. With B11 the EC50 was 0.31 nM.
